From IntAct's records for PubMed 32439656

B1: ER membrane protein complex subunit 2 (Homo sapiens), Q15006 (parent)
chain: MAKVSELYDVTWEEMRDKMRKWREENSRNSEQIVEVGEELINEYASKLGDDIWIIYEQVMIAALDYGRDDLALFCLQELRRQFPGSHRVKRLTGMRFEAMERYDDAIQLYDRILQEDPTNTAARKRKIAIRKAQGKNVEAIRELNEYLEQFVGDQEAWHELAELYINEHDYAKAAFCLEELMMTNPHNHLYCQQYAEVKYTQGGLENLELSRKYFAQALKLNNRNMRALFGLYMSASHIASNPKASAKTKKDNMKYASWAASQINRAYQFAGRSKKETKYSLKAVEDMLETLQITQS
partner: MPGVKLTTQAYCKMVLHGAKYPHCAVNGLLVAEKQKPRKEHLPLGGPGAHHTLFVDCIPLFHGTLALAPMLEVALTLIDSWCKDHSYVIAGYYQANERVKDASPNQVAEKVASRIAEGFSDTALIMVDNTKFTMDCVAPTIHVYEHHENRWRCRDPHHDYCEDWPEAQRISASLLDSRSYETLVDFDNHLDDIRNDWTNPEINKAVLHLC
B2: ER membrane protein complex subunit 6 (Homo sapiens), Q9BV81 (parent)
chain: MAAVVAKREGPPFISEAAVRGNAAVLDYCRTSVSALSGATAGILGLTGLYGFIFYLLASVLLSLLLILKAGRRWNKYFKSRRPLFTGGLIGGLFTYVLFWTFLYGMVHVY
partner: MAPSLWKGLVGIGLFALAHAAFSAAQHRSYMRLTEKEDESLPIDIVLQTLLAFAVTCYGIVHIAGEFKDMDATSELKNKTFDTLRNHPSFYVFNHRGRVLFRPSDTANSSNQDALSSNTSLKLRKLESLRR

Variants of: B1
Settings: with emc8_human EMC8, O43402

Variant	effect of a mutation on the interaction
MAKVSELYDVTWEEMRDKMRKWREENSRNSEQIVEVGEELINEYASKLGDDIWIIYEQVMIAALDYGRDDLALFCLQELRRQFPGSHRVKRLTGMRFEAMERYDDAIQLYDRILQEDPTNTAARKRKIAIRKAQGKNVEAIRELNEYLEQFVGDQEAWHELAELYINEHDAAKAAFCLEELMMTNPHNHLYCQQYAEVKYTQGGLENLELSRKYFAQALKLNNRNMRALFGLYMSASHIASNPKASAKTKKDNMKYASWAASQINRAYQFAGRSKKETKYSLKAVEDMLETLQITQS [Y171A]	with no effect
MAKVSELYDVTWEEMRDKMRKWREENSRNSEQIVEVGEELINEYASKLGDDIWIIYEQVMIAALDYGRDDLALFCLQELRRQFPGSHRVKRLTGMRFEAMERYDDAIQLYDRILQEDPTNTAARKRKIAIRKAQGKNVEAIRELNEYLEQFVGDQEAWHALAELYINEHDYAKAAFCLEELMMTNPHNHLYCQQYAEVKYTQGGLENLELSRKYFAQALKLNNRNMRALFGLYMSASHIASNPKASAKTKKDNMKYASWAASQINRAYQFAGRSKKETKYSLKAVEDMLETLQITQS [E160A]	with no effect
MAKVSELYDVTWEEMRDKMRKWREENSRNSEQIVEVGEELINEYASKLGDDIWIIYEQVMIAALDYGRDDLALFCLQELRRQFPGSHRVKRLTGMRFEAMERYDDAIQLYDRILQEDPTNTAARKRKIAIRKAQGKNVEAIRELNEYLEQFVGDQEAWHELAELYINEHDYAKAAFCLEELMMTNPHNHLYCQQYAEVKYTQGGLENLELSRKYFAQALKLNNRNMAALFGLYMSASHIASNPKASAKTKKDNMKYASWAASQINRAYQFAGRSKKETKYSLKAVEDMLETLQITQS [R227A]	disrupting interaction strength
MAKVSELYDVTWEEMRDKMRKWREENSRNSEQIVEVGEELINEYASKLGDDIWIIYEQVMIAALDYGRDDLALFCLQELRRQFPGSHRVKRLTGMRFEAMERYDDAIQLYDRILQEDPTNTAARKRKIAIRKAQGKNVEAIRELNEYLEQFVGDQAAWHELAELYINEHDYAKAAFCLEELMMTNPHNHLYCQQYAEVKYTQGGLENLELSRKYFAQALKLNNRNMRALFGLYMSASHIASNPKASAKTKKDNMKYASWAASQINRAYQFAGRSKKETKYSLKAVEDMLETLQITQS [E156A]	with no effect
MAKVSELYDVTWEEMRDKMRKWREENSRNSEQIVEVGEELINEYASKLGDDIWIIYEQVMIAALDYGRDDLALFCLQELRRQFPGSHRVKRLTGMRFEAMERYDDAIQLYDRILQEDPTNTAARKRKIAIRKAQGKNVEAIRELNEYLEQFVGDQEAWHELAELYINEHDYAKAAFCLEELMMTNPHNHLYCQQYAEVKATQGGLENLELSRKYFAQALKLNNRNMRALFGLYMSASHIASNPKASAKTKKDNMKYASWAASQINRAYQFAGRSKKETKYSLKAVEDMLETLQITQS [Y200A]	disrupting interaction strength
MAKVSELYDVTWEEMRDKMRKWREENSRNSEQIVEVGEELINEYASKLGDDIWIIYEQVMIAALDYGRDDLALFCLQELRRQFPGSHRVKRLTGMRFEAMERYDDAIQLYDRILQEDPTNTAARKRKIAIRKAQGKNVEAIRELNEYLEQFVGDQEAWHELAELYINEHDYAKAAFCLEELMMTNPHNHLYCQQYAEVKYTQGGLENLELSRKYFAQALKLNNRNMRALFGLYMSASHIASNPKASAKTKKDNMKYASAAASQINRAYQFAGRSKKETKYSLKAVEDMLETLQITQS [W259A]	with no effect
MAKVSELYDVTWEEMRDKMRKWREENSANSEQIVEVGEELINEYASKLGDDIWIIYEQVMIAALDYGRDDLALFCLQELRRQFPGSHRVKRLTGMRFEAMERYDDAIQLYDRILQEDPTNTAARKRKIAIRKAQGKNVEAIRELNEYLEQFVGDQEAWHELAELYINEHDYAKAAFCLEELMMTNPHNHLYCQQYAEVKYTQGGLENLELSRKYFAQALKLNNRNMRALFGLYMSASHIASNPKASAKTKKDNMKYASWAASQINRAYQFAGRSKKETKYSLKAVEDMLETLQITQS [R28A]	with no effect
MAKVSELYDVTWEEMRDKMRKWREENSRNSEQIVEVGEELINEYASKLGDDIWIIYEQVMIAALDYGRDDLALFCLQELRRQFPGSHRVKRLTGMRFEAMERYDDAIQLYDRILQEDPTNTAARKRKIAIRKAQGKNVEAIRELNEYLEQFVGDQEAWHELAELYINEHDYAKAAFCLEALMMTNPHNHLYCQQYAEVKYTQGGLENLELSRKYFAQALKLNNRNMRALFGLYMSASHIASNPKASAKTKKDNMKYASWAASQINRAYQFAGRSKKETKYSLKAVEDMLETLQITQS [E180A]	with no effect

Variants of: B2
Settings: with emc5_human MMGT1, Q8N4V1

Variant	effect of a mutation on the interaction
MAAVVAKREGPPFISEAAVRGNAAVLDYCRTSVSALSGATAGILYLTALYGFIFYLLASVLLSLLLILKAGRRWNKYFKSRRPLFTGGLIGGLFTYVLFWTFLYGMVHVY [G45Y;G48A]	with no effect
MAAVVAKREGPPFISEAAVRGNAAVLDYCRTSKSAKSGATAGILGLTGLYGFIFYLLASVLLSLLLILKAGRRWNKYFKSRRPLFTGGLIGGLFTYVLFWTFLYGMVHVY [V33K;L36K]	with no effect
